Source: patent US20080182249A1, “Expression systems for mammalian and mycobacterial desaturases” (priority 2006, published 2008)
Where “and” joins values, the source holds several entries; their conditions need not be identical. Equal entries are not always repeated.

B1: hSCD5-wt: human SCD5 wild-type construct expressed in yeast L8-14C (protein, UniProt Q86SK9 1-330, looked up)
Stearoyl-CoA desaturase 5: MPGPATDAGKIPFCDAKEEIRAGLESSEGGGGPERPGARGQRQNIVWRNVVLMSLLHLGAVYSLVLIPKAKPLTLLWAYFCFLLAALGVTAGAHRLWSHRSYRAKLPLRIFLAVANSMAFQNDIFEWSRDHRAHHKYSETDADPHNARRGFFFSHIGWLFVRKHRDVIEKGRKLDVTDLLADPVVRIQRKYYKISVVLMCFVVPTLVPWYIWGESLWNSYFLASILRYTISLNISWLVNSAAHMYGNRPYDKHISPRQNPLVALGAIGEGFHNYHHTFPFDYSASEFGLNFNPTTWFIDFMCWLGLATDRKRATKPMIEARKARTGDSSA
B2: hSCD5-6xH: human SCD5 construct with 6xHis tag expressed in yeast L8-14C (protein, UniProt Q86SK9 1-330, looked up)
Stearoyl-CoA desaturase 5: B1 Stearoyl-CoA desaturase 5
modifications: C-terminal 6xHis tag
notes: human SCD5 construct with 6xHis tag expressed in yeast L8-14C
B3: hSCD1-wt: human SCD1 wild-type construct expressed in yeast L8-14C (protein, UniProt O00767 1-359, looked up)
Stearoyl-CoA desaturase: MPAHLLQDDISSSYTTTTTITAPPSRVLQNGGDKLETMPLYLEDDIRPDIKDDIYDPTYKDKEGPSPKVEYVWRNIILMSLLHLGALYGITLIPTCKFYTWLWGVFYYFVSALGITAGAHRLWSHRSYKARLPLRLFLIIANTMAFQNDVYEWARDHRAHHKFSETHADPHNSRRGFFFSHVGWLLVRKHPAVKEKGSTLDLSDLEAEKLVMFQRRYYKPGLLMMCFILPTLVPWYFWGETFQNSVFVATFLRYAVVLNATWLVNSAAHLFGYRPYDKNISPRENILVSLGAVGEGFHNYHHSFPYDYSASEYRWHINFTTFFIDCMAALGLAYDRKKVSKAAILARIKRTGDGNYKSG
B4: mSCD1 only: recombinant mSCD1 prepared as yeast microsomes, no exogenous cyt b5 or reductase (protein, UniProt P13516 1-355, looked up)
Acyl-CoA desaturase 1: MPAHMLQEISSSYTTTTTITAPPSGNEREKVKTVPLHLEEDIRPEMKEDIHDPTYQDEEGPPPKLEYVWRNIILMVLLHLGGLYGIILVPSCKLYTCLFGIFYYMTSALGITAGAHRLWSHRTYKARLPLRIFLIIANTMAFQNDVYEWARDHRAHHKFSETHADPHNSRRGFFFSHVGWLLVRKHPAVKEKGGKLDMSDLKAEKLVMFQRRYYKPGLLLMCFILPTLVPWYCWGETFVNSLFVSTFLRYTLVLNATWLVNSAAHLYGYRPYDKNIQSRENILVSLGAVGEGFHNYHHTFPFDYSASEYRWHINFTTFFIDCMAALGLAYDRKKVSKATVLARIKRTGDGSHKSS
modifications: yeast microsomes
notes: recombinant mSCD1 prepared as yeast microsomes, no exogenous cyt b5 or reductase
B5: mSCD4: mouse stearoyl-CoA desaturase isoform 4, cloned from heart, expressed in yeast (protein, UniProt Q6T707 1-353, looked up)
Stearoyl-CoA desaturase 4: MTAHLPQEISSRCSTTNIMEPHSRRQQDGEEKMPLQAEDIRPEIKDDLYDPSYQDEEGPPPKLEYVWRNIIFMALLHVGALYGITLVPSCKVYTWLLGVFYNVVAGLGITAGAHRLWSHRTYKARLPLRIFLIMANTMAFQNDVYEWARDHRAHHKFSETHADPHNSRRGFFFSHVGWLLVRKHPAVKEKGKNLDMSDLKAEKLVMFQRRYYKLAVTLMFIILPTLVPWYLWGETFQHSLCVSNFLRYAVLLNFTWLVNSAAHLYGYRPYDRGIGARENPFVSMASLGEGFHNYHHTFPYDYSVSEYRWHINFTTFFIDCMAALGLAYDRKKVSKAVVLARIKRTGDGSHKSS

Legend:
transgenic L8-14C = assay: Fatty acid profile of transgenic L8-14C expressing human SCD constructs; type: cell-based, Saccharomyces cerevisiae; conditions: for 16:0 / 16:1 / 18:0 / 18:1: percentage of total C16 and C18 fatty acids detected
mSCD1 = target: T1, mSCD1 (Mus musculus, UniProt P13516); assay: Conversion of [14C]-18:0-CoA to [14C]-18:1-CoA by reconstituted complexes of recombinant mSCD1 with cyt b5 and cyt b5 reductase; type: biochemical
T1 construct: 6xHis (from pYES-DEST52) (C); made in house; host or cells: mSCD1: Saccharomyces cerevisiae (OLE1-deficient strain L8-14C), used as microsomes; cyt b5 and cyt b5 reductase: Escherichia coli
T1 sequence (P13516 1-355): B4 Acyl-CoA desaturase 1

[1] = system: OLE1 deficient yeast strain L8-14C; type: cell-based, Saccharomyces cerevisiae; conditions: galactose minimal medium without unsaturated fatty acids, plus grades not defined

Molecule | Ratio 18:1/16:1 (transgenic L8-14C) | 16:0 (transgenic L8-14C) [percentage] | 16:1 (transgenic L8-14C) [percentage] | 18:0 (transgenic L8-14C) [percentage] | 18:1 (transgenic L8-14C) [percentage] | % conversion (mSCD1; 18:0-CoA to 18:1-CoA, single trial of duplicate) | Correction by subtraction of background (mSCD1; average conversion minus background) [%] | average conversion (mSCD1; mean of duplicate trials) [%] | cpm 18:1-CoA (mSCD1; single trial of duplicate) | total cpm (mSCD1; single trial of duplicate) | cpm 18:0-CoA (mSCD1; single trial of duplicate, mSCD1 yeast microsomes, cyt b5 and cyt b5 reductase from E. coli) | In vivo activity [1]
B1 | 3.39 | 45.032 | 8.90 | 7.73 | 30.20 | – | – | – | – | – | – | –
B2 | 3.73 | 56.64 | 6.70 | 10.79 | 25.70 | – | – | – | – | – | – | –
B3 | 0.63 | 61.87 | 23.22 | 9.40 | 14.65 | – | – | – | – | – | – | –
B4 | – | – | – | – | – | 5.40% and 5.55% | 3.47 | 5.48 | 1626 cpm and 1743 cpm | 30,094 cpm and 31,416 cpm | 28,468 cpm and 29,673 cpm | –
B5 | – | – | – | – | – | – | – | – | – | – | – | Not active
